Columns and labels:
[1] = Degree of monomerization of non-boiled samples in SDS-PAGE / Western blot; assay type: physicochemical
Method: FIG. 3: Western blot analysis of cell culture supernatants from B. subtilis strains producing streptavidin muteins carrying a single mutation. 15 μl of non-boiled sample of culture supernatant was loaded to each lane. Samples on the left set were collected from B. subtilis strains cultured in super-rich medium without additional supplement of biotin. Samples on the right set were collected from B. subtilis strains cultured in super-rich medium with additional supplementation of biotin (20 μM). The blot was probed with polyclonal antibodies against streptavidin and developed using 4-chloro-1-napthol (Bio-Rad) as the colour development agent. […] M, molecular weight markers; wt, wild type streptavidin.
FIG. 4: Analysis of culture supernatants from B. subtilis strains producing streptavidin muteins carrying different combinations of mutations. All these strains were cultivated in super-rich medium supplemented with biotin (20 μM). The 15 μl of non-boiled samples of culture supernatants were loaded. FIG. 4A. Coomassie blue stained SDS-polyacrylamide gel. […]
Streptavidin muteins carrying a single amino-acid change at the selected site may be produced in their soluble form by B. subtilis via secretion. […] Since biotin can strengthen subunit interaction, samples were analyzed in the presence or absence of biotin (Laitinen, 2001; Gonzalez, 1999). […]

[2] = Apparent molecular mass by gel filtration (Bio-Prep SE 100/17); assay type: physicochemical
Excerpt: FIG. 6: Gel filtration profiles of streptavidin muteins. FIG. 6A. […] Bovine gamma-globulin (158 kDa), bovine serum albumin (66 kDa), ovalbumin (44 kDa), myoglobin (17 kDa) and vitamin B-12 (1.35 kDa) were used as molecular mass markers (closed circles) to calibrate the column. The logarithm of molecular mass was plotted versus Kav (Kav=(Ve−Vo)/(Vt−Vo); Ve, elution volume; Vo, void volume; Vt, bed volume). Positions of wild-type streptavidin (wt) and streptavidin muteins are represented by solid squares. FIG. 6B. Elution profile of M4 mutein (loaded at 2 mg/ml) on the gel filtration column.
(§1) Molecular mass of purified streptavidin and its muteins was estimated by both gel filtration and dynamic light scattering studies. Gel filtration was performed on the Bio-Rad biologic workstation equipped with a Bio-Prep SE 100/17 column that had been calibrated with molecular mass protein markers (Bio-Rad). Molecular mass was also estimated from the hydrodynamic radius of the mutein obtained using a DynaPro MS dynamic light scattering instrument (Protein Solutions, USA) that had been calibrated with lysozyme. Protein samples (2-3 mg/ml in PBS) were passed through a 0.02 μm filter (Whatman Anodisc 13) immediately prior to measurement. The size distribution profile was analyzed using the manufacturer's Dynamics V6 software.

[3] = Dynamic light scattering (hydrodynamic radius, estimated molecular mass); assay type: physicochemical; details: for M (kDa) (Dynamic light scattering): calculated from measured RH using a protein calibration curve
Method: as §1

proteinase K = assay: Proteinase K digestion of streptavidin and its muteins; assay type: biochemical; details: independent of the presence or absence of biotin; 5 μM proteinase K, 15 min, 30° C.
Method: Purified streptavidin and its muteins (30 μM monomer) were treated with proteinase K (Invitrogen, 5 μM) for 15 min at 30° C. in 50 mM Tris-HCl containing 5 mM CaCl2, pH 8.0. The reaction was stopped by precipitation with trichloroacetic acid (Ellison, 1995). Boiled samples of precipitated proteins were resolved by reducing SDS-PAGE. The same analysis was performed with streptavidin samples treated with biotin (1 mM final concentration) prior to proteinase K digestion.

[4] = Cross-linking reactions with sulfo-EGS; assay type: physicochemical; details: 10-fold molar excess sulfo-EGS, 30 min, room temperature
Method: Cross-linking of streptavidin and its muteins was carried out using sulfo-EGS [ethylene glycolbis(sulfosuccinimidyl succinate)] (Pierce) as the cross-linker. A typical reaction mixture (20 μl) contained the purified mutein (0.2 5 mg/ml) and sulfo-EGS (10-fold molar excess over the protein) in PBS. After 30 min at room temperature, the reaction was quenched with Tris-HCl (30 mM, pH 7.5). Aliquots of the cross-linking reaction samples were boiled and examined by SDS-PAGE. Lysozyme (Sigma, 0.25 mg/ml) was included in the study to help establish the optimal reaction conditions.

[5] = test system: Biotin-conjugated bovine serum albumin; assay: Kinetic analysis by surface plasmon resonance BIAcoreX biosensor; assay type: binding; details: interaction with biotin
Method: FIG. 8: Kinetic parameters for the interaction between M4 streptavidin mutein and biotin as monitored by BIAcore biosensor. A. On-rate (ka) determination. ka is derived from association analysis. kd is the slope of the plot of In(Ro/Rt) versus (t−to) where Ro is the response at an arbitrary starting time to; Rt is the response at time t.
The kinetic parameters (both on- and off-rates for interaction with biotin) of streptavidin muteins were determined in real time using the surface plasmon resonance based BIAcoreX biosensor. Biotin-conjugated bovine serum albumin immobilized on CM5 sensor chip was used to study the reversibility of biotin binding (Qureshi, 2001).

Solubility of mutein = assay type: physicochemical; details: at a concentration of 2 mg/ml

B1: M4: monomeric streptavidin quadruple mutant carrying T76R, V125R, V55T and L109T mutations (protein)
chain: MNIKKFAKQATVLTFTTALLAGGATQAFADPSKDSKAQVSAAEAGITGTWYNQLGSTFIVTAGADGALTGTYESAVGNAESRYTLTGRYDSAPATDGSGTALGWRVAWKNNYRNAHSATTWSGQYVGGAEARINTQWTLTSGTTEANAWKSTLRGHDTFTKVKPSAASIDAAKKAGVNNGNPLDAVQQ
modifications: Amino acid sequence for secretory production of streptavidin M4 in B. subtilis
notes: monomeric streptavidin quadruple mutant carrying T76R, V125R, V55T and L109T mutations
Monomer (percentage of streptavidin in monomeric state) ([1]; No additional biotin): 100%
Monomer (percentage of streptavidin in monomeric state) ([1]; With additional biotin (20 μM)): 100%
M (kDa) (Gel filtration) ([2]; +biotin): 24.54 kDa
M (kDa) (Gel filtration) ([2]; no biotin): 21.87 kDa
RH (nm) (Dynamic light scattering) ([3]; +biotin): 2.20 ± 0.14 nm
M (kDa) (Dynamic light scattering) ([3]; +biotin): 21.5 kDa
RH (nm) (Dynamic light scattering) ([3]; no biotin): 2.08 ± 0.31 nm
M (kDa) (Dynamic light scattering) ([3]; no biotin): 18.1 kDa
Susceptibility to proteinase K digestion (proteinase K): completely digested
Oligomeric state after cross-linking with sulfo-EGS (SDS-PAGE) [4]: migrated as monomers
ka, on-rate [5]: 1.80 ± 0.04 × 10^4 M^−1s^−1
kd, off-rate [5]: 3.39 ± 0.02 × 10^−3 s^−1
solubility (Solubility of mutein): excellent solubility
